From US20210292393A1 (published 2021)
Substitutions are numbered along the chain they refer to.

B1: anti-SARS-CoV-2 antibody 1081 (antibody, V domains shown)
VH: EVQLVQSGAEVKKPGESLKISCKRSGYSFTTYWIGWVRQMPGKGLEWMGSIYPGDSDTRYSPSFQGQVTISADKSISTAYLQWSSLKASDTAMYYCASQEVPGYYYYMDVWGKGTTVTVSS
VL: DIQMTQSPSSLSASVGDRVTITCRASQSISSYLHWYQQKPGKAPKLLIYAASSLQSGVPSRFSGSGSGTDFTLTISSLQPEDFATYYCQQTYSTHTWTFGQGTKVEIK
B2: anti-SARS-CoV-2 antibody 989 (antibody, V domains shown)
VH: QVQLQESGPGLVKPSQTLSLTCTVSGGSISSGSYYWSWIRQPAGKGLEWIGRIYTSGSTNYNPSLKSRVTMSVDTSKNHFSLKLRSVTAADTAVYYCARGIAVAGDDDYYYYYGLDVWGQGTTVTVSS
VL: SYELTQPPSVSVSPGQTARITCSGDALPKQYAYWYQQKPGQAPVMVINKDSERPSGIPERFSGSSSGTTVTLTISGVQAEDEADYYCHSADSSGTYWVFGGGTKLTVL
B3: anti-SARS-CoV-2 antibody 966 (antibody, V domains shown)
VH: QVQLVESGGGVVQPGRSLRLSCAASEFTFSSYGMHWVRQAPGKGLEWVAVISHDGSNEYYADSVKGRFTISRDNSKNTLYLQMNSLRAEDTAVYYCAKWRGPHRGYYDRSGYYLGSSRDDYWGQGTLVTVSS
VL: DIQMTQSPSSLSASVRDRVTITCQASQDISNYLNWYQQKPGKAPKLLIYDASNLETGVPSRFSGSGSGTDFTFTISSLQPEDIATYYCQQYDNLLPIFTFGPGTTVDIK
B4: anti-SARS-CoV-2 antibody 1037 (antibody, V domains shown)
VH: QITLKESGPTLVKPTQTLTLTCTFSGFSLSTSGVGVGWIRQPPGKALEWLALIYWDDDKRYSPSLKSRLTITKDTSKNQVVLTMTNMDPVDTATYYCAHHTITRINDYWGQGTLVTVSS
VL: QSALTQPASVSGSPGQSITISCTATSSDVGAYNYVSWYQQHPGKAPKLMIYDVSKRPSGVSNRFSGSKSGNTASLTISGLQAEDEADYYCSSYTSSSTVFGGGTKLTVL
B5: anti-SARS-CoV-2 antibody 1012 (antibody, V domains shown)
VH: EVQVVESGGGLVQPGGSRRLSCTASGFTLRNYWMSWVRQAPGKGLEWVANIKQDGSEKYYVDSVKGRFTISRDNAKNSLYLQMDSLRAEDTAVYYCARGGRYCPGGSCPRWGRGTLVTVSS
VL: DIQMTQSPSSLSASVGDRVTITCQASQDISNFLNWYQLKPGEAPTLLIFDASKLETGVPSRFSGTGFGTDFTFTISSLQPEDTATYYCQQYDDLTSITLGQGTRLEIK
B6: anti-SARS-CoV-2 antibody 1000 (antibody, V domains shown)
VH: EVQLVESGGGLVQPGRSLRLSCAASGFTFDDYAMHWVRQAPGEGLEWVSGISWNSGSIGYADSVKGRFTISRDNAKNSLYLQMNSLRAEDTALYYCAKDTRFSFGTIAAAVSGYGMDVWGQGTTVTVSS
VL: QSALTQPASVSGSPGQSITISCTGTSSDVGIFNLVSWYQQHPGKAPKLMIYEVTKRPSGVSNRFSGSKSGNTASLTISGLQAEDEADYYCCSYAGSYVFGTGTKVTVL
B7: anti-SARS-CoV-2 antibody 1027 (antibody, V domains shown)
VH: EVQLVESGGGLVQPGGSLRLSCAASGFTVSSNYMSWVRQAPGKGLEWVSIIYSGGSTFYADSVKGRFTISRDSSKNTLYLQMSSLRAEDTAVYYCARDLDYYGMDVWGQGTTVTVSS
VL: DIQLTQSPSFLSAPVGDRVTITCRASQGISSYLAWYQQKPGKAPKLLIYGASTLQSGVPSRFSGSGSGTEFTLTISSLQPEDFATYYCQQLNSYQRFTFGPGTKVEIK
B8: anti-SARS-CoV-2 antibody 1091 (antibody, V domains shown)
VH: EVQLVESGGGLVKPGGSLRLSCAASGFPFITYSMNWVRQAPGKGLEWVSSISRNSDYIYYADSVRGRVTISRDNAENSLYLQMHSLRAEDTAVYYCARDVVRSGNYYIPRHGMDVWGRGTTVTVSS
VL: QSVLTQPPSASGTPGQRVTISCSGTSSNIGSNTVNWYQQLPETAPKLLIYGTDQRPSGVPDRFSGSKSGTSASLAISRLQSEDEADYYCATRDDSLSGPVFGGGTQLTVL
B9: anti-SARS-CoV-2 antibody 1075 (antibody, V domains shown)
VH: QVQLVQSGAEVKKPGASVKVSCKVSGYTLIELSMHWVRQAPGKGLEWMGGFDPEDGETIYAQKFQGRVTMTEDTSTDTAYMELSSLRSEDTAVYYCATEWAYYGSGSYLGYWGQGTLVTVSS
VL: EIVMTQSPATLSVSPGERATLSCRASQSVSSNLAWFQQKPGQAPRLLIYGASTRVTVIPARFSGSGSGTEFTLTISSLQSEDFAVYYCQQYNNWPRTFGQGTKVEIK
B10: anti-SARS-CoV-2 antibody 1193 (antibody, V domains shown)
VH: EVQLVESGGGLVQPGGSLRLSCAASGFTFSSYYMNWVRQAPGKGLEWVSYISSGSSIIYYADSVKGRFTISRDNAKNSLYLQMNSLRDEDTAVYYCARDSPLRYFDWQLGGGFDYWGQGTLVTVSS
VL: QSALTQPASVSGSPGQSITISCTGTSSDVGGYNYVSWYQQHPGKAPKLMIYDVSNRPSGVSNRFSGSKSGNTASLTISGLQAEDEADYYCSSYTSSSLWVFGGGTKLTVL
B11: anti-SARS-CoV-2 antibody 1015 (antibody, V domains shown)
VH: EVQLVESGGGLVQPGGSLRLSCAASGFTFSSYWMHWVRQAPGKGLVWVSHINSDGSSTSYADSVKGRFTISRDNAKNTLYLQMNSLRAEDTAVYYCARGLRYFDLDVWGQGTTVTVSS
VL: QSVLTQPPSVSEAPRQRVTISCSGSSSNIGNNAVNWYQQLPGKAPKLLIFYDDLLPSGVSDRFSGSKSGTSASLAISGLQSEDEADYYCAAWDDSLNGGVFGGGTKLTVL
B12: antibody 476 (antibody, V domains shown)
VH: QVQLVQSGSELKKPGASVKVSCKASGYTFTSYAMNWVRQAPGQGLEWMGWINTNTGNPTYAQGFTGRFVFSLDTSVSTAYLQISSLKAEDTGVYYCARDHELPNSSSWFGHFEYWGQGTLVTVSS
VL: B2 VL with P39A, M45L, N48Y, P54R, H88Q, Y96S, W97V
B13: antibody 456 (antibody, V domains shown)
VH: QVQLQQWGAGLLKPSETLSLTCAVYGGSFSGYYWSWIRQPPGKGLEWIGEINHSGSTNYNPSLKSRVTISVDTSKNQFSLKLSSVTAADTAVYYCARDGSGSYYLSYYFDYWGQGTLVTVSS
VL: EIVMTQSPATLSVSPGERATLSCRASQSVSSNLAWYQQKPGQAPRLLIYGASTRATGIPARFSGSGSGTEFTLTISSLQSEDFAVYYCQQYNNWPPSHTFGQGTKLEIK
B14: antibody 477 (antibody, V domains shown)
VH: QVQLVESGGGVVQPGRSLRLSCAASGITFSSYAMHWVRQAPGKGLEWVAVISYDGSDKYHADSVKGRFAISRDNSKNTLYLQMNSLRAEDTAVYYCAKDKGIAVAGTGWIRPDPEYYFDYWGQGTLVTVSS
VL: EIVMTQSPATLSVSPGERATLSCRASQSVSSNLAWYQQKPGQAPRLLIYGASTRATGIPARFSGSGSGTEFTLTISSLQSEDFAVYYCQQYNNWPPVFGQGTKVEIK
B15: antibody 439 (antibody, V domains shown)
VH: QVQLVESGGGVVQPGRSLRLSCAASGFTFSSYAMHWVRQAPGKGLEWVAVISYDGSNKYYADSVKGRFTISRDNSKNTLYLQMNSLRAEDTAVYYCARPPRGGSYYPFDPWGQGTLVTVSS
VL: not shown
B16: antibody 480 (antibody, V domains shown)
VH: B15 VH with S56N, A97V, P99T, P100N, R101S, G103S, S104Y, Y106A, P107A, P110Y
VL: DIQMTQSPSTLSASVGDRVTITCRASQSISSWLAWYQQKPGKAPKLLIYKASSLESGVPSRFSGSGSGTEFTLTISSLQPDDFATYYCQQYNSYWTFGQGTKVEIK
B17: antibody 446 (antibody, V domains shown)
VH: B15 VH with P100N, R101S, G103S, S104Y, Y105F, Y106G, P107Y, D109Q, P110H
VL: QSVLTQPPSVSGAPGQRVTISCTGSSSNIGAGYDVHWYQQLPGTAPKLLIYGNSNRPSGVPDRFSGSKSGTSASLAITGLQAEDEADYYCQSYDSSLSGFYVFGTGTKVTVL
B18: antibody 475 (antibody, V domains shown)
VH: QVQLVESGGGVVQPGRSLRLSCAASGFTFSSYAMHWVRQAPGKGLEWVTFISHEGSNKYYADSVKGRFTISRDNSKNTLYLQMNSLRAEDTAVYYCARTFEYSSSSATGDFDYWGQGTLVTVSS
VL: QSVLTQPPSVSGAPGQRVTISCTGSSSNIGAGYDVHWYQQLPGTAPKLLIYGNSNRPSGVPDRFSGSKSGTSASLAITGLQAEDEADYYCQSYDSSLSGVVFGGGTKLTVL
B19: antibody 470 (antibody, V domains shown)
VH: not shown
VL: B10 VL with G31S, Y34L, D52E, N55K, S91C, T94A, S95G, L98T, W99L
B20: antibody 454 (antibody, V domains shown)
VH: QVQLVQSGAEVKKPGASLKVSCKASGYIFTGYYMHWVRQAPGQGLEWMGWISPNSGGTKYAQKFQGRVTMTRDTSISTAYMELSRLRSDDSAVYYCAREPYYDILTGYYTPRRYLDYWGQGTLVTVSS
VL: B10 VL with G31D, A45V, N55H, S61T, Q81R, L98T, W99Y, G103T, L107V
B21: antibody 482 (antibody, V domains shown)
VH: EVQLVESGGGLVQPGGSLRLSCAASGFTFSSYWMTWVRQAPGKGLEWVANIKQDGSEKYYVDSVKGRFTISRDNAKNSLYLQMNSLRAEDTAVYYCARGVGSWYLGFDYWGQGTLVTVSS
VL: NFMLTQPHSVSESPGKTVTISCTGSSGSIASNYVQWYQQRPGSAPTTVIYEDNQRPSGVPDRFSGSIDSSSNSASLTISGLKTEDEADYYCQSYDGSSYVFGTGTKVTVL

Each binder was assayed against SARS-CoV-2 spike protein (wild type), spike protein trimer (SARS-CoV-2, UniProt P0DTC2 14-1208) (assay: not given).

| Binder | Kd [nM] |
| --- | --- |
| B1 | 0.093 |
| B2 | 0.104 |
| B3 | 1.8 |
| B4 | 0.126 |
| B5 | 0.139 |
| B6 | 0.092 |
| B7 | 0.205 |
| B8 | 0.054 |
| B9 | 0.093 |
| B10 | 0.178 |
| B11 | 0.096 |

Each binder was assayed against SARS-CoV-2 full-length spike protein on pseudotyped lentivirus (SARS-CoV-2, UniProt P0DTC2 14-1273) (assay: cell-based or functional assay).

| Binder | Pseudo-neutralization IC50 [mg/L] |
| --- | --- |
| B1 | 0.012 |
| B2 | 0.19 |
| B3 | 0.021 |
| B4 | 0.025 |
| B5 | 0.006 |
| B6 | 0.006 |
| B7 | 0.01 |
| B8 | 0.016 |
| B9 | 0.039 |
| B10 | 0.69 |
| B11 | 0.011 |

Each binder was assayed against spike protein of SARS-CoV-2 clinical isolate USA/WA/1/2020 (live virus) (SARS-CoV-2, UniProt P0DTC2 14-1273) (assay: cell-based or functional assay).

| Binder | Live Virus Neutralization IC50 [mg/L] |
| --- | --- |
| B1 | 4.6 |
| B2 | 1.5 |
| B3 | > 10 |
| B4 | 0.009 |
| B5 | 0.028 |
| B6 | 0.013 |
| B7 | 0.005 |
| B8 | 0.074 |
| B9 | 0.011 |
| B10 | 0.31 |
| B11 | 0.032 |

These binders were tested against SARS-CoV-2 full length spike protein (wild type), expressed on the surface of transiently transfected CHO … (SARS-CoV-2, UniProt P0DTC2 14-1273) (assay: not given).

| Binder | median fluorescence intensity, fold over isotype control [fold over isotype] |
| --- | --- |
| B12 | 18.2 |
| B13 | 9.25 |
| B14 | 30.7 |
| B15 | 8.2 |
| B16 | 9.77 |
| B17 | 7.99 |
| B18 | 32.2 |
| B19 | 20.7 |
| B20 | 29.6 |
| B21 | 2.31 |
